The DeepSol protein solubility set

Assay: soluble on expression in E. coli; label from the status in PepcDB or PDB records

Row | Sequence | soluble on expression in E. coli
1 | PYHGKSKPNKETFVCDLKTSLSNEAIGYIGKANTVGILLSGGMDSRVVAGVVRDLQKNNRSISVVGITWGNANSRDVIYSQRICQQFGWEFVHFPITAETLHKNIQLSAKMGAEVSALHFHAMSDVADLKGVDVILAGSYGDSVGRAEFSGKHVTKLSSVLPSRINNLGLIKDELFQSALESIRNDAQLPAFHNAGDNNLRKYEIEQECHYMRRMLQSCMHVVAEKIPFYQMFTAPSVFGLMWGLEPNIRNNDWYVELLNILPGQLLQIPWARTGILYHLPEGTADEFDKSYHQYGLWLKTELKDEMLNAMNSKSIRELGIFN | not soluble
2 | MKTLLSLGHGYSAQALAHRLLPQGWTVIGTTRSAAKAAELEAGGIEPLLWPGDLGPALARASHILASAAPGREGDPFLATHGAELARADARWVGYLSTTGVYGDHAGGWVDEDTPLTPSTERGQARVQAERQWQALGLPLHIFRLAGIYGPGRGPFEKVRDGTARRIVKPGQVFSRIHVADIAQVLEASMQHPEPGAIYNVCDDDPAPPEDVLGYAAELLGLPPPPEVPYDEAEMTPMARSFYAESKRVRNDRIKARLGIALLHPDYRSGLRSLLAGGD | not soluble
3 | MSLNLREFKEFIDNEMIVILGQMDSPTQIFEHVFLGSEWNASNLEDLQNRGVRYILNVTREIDNFFPGVFEYHNIRVYDEEATDLLAYWNDTYKFISKAKKHGSKCLVHCKMGVSRSASTVIAYAMKEYGWNLDRAYDYVKERRTVTKPNPSFMRQLEEYQGILLASKEGHHHHHH | not soluble
4 | QNPSIYCAGHGIYWVAYDMGTALSTGPVKVEAETSGDIDGRIYGIVLAAVYEDKEGQDTRYWVEEGNINLHDKGRSEEASSTHDEAYADFSGKVDVDRYKTANLAAVYLCGSPGLGDSLYFNDEQLSDGENSNDIANSKSYFDLKFFDVLDFLAEDDNELRFQRDDEDYLHPVFAALSLGTEEEGSSDLIVSGVTLPVLYAGQENIIKANIKNIGRDSAYGFQAALYADNEIVSTASVSSLSSGKSKTIDFNWKPGRSGEHVLKVSVDYTNRKKELCEINNWNIPFLANIIDLTPPEIEIDSPLDGSSVSSGYLKVSGTVEDTSRNTTVDVNGQKALLADKRWSADIPVAPGPNKIVVSAVDGTNNTGKEFILVTGISSGSGNNESFVSGGEREHVNRKVNAEPVSSTIPVYRSDI | not soluble
5 | MSRYCSQCGKSRKACICQWIVPLASGVELIILQHTSEAHRPLGTARILNLSLKNCTCLIGEDFSDDAQLNALLTDEAYQHFILYPSEQSQCLSDIACTESERTRKTRLILLDGTWKKAYKMWQLSTNLHTLTTVKLPEDLQGHYTIRKAPSDNSLSTVEAGFYALSLLEPDNDFSPLLNAFDRMIEFQIAQMPPGVFEKNYLNKLEHHHHHH | not soluble
6 | MDRNFKLRQMFSDYLDNKNSNSTHTPPVRVHYPLIATMSPADKARFTVKKITEVEGEVLDAPLENAHPVFFAEPQFELRWYNKPDSLAGRFQTNAEAETTSKLAQRLLTLFLKTEMLESAFFKYDDIRAIRVFFMDDREMATDRLMAILDNILSVSMTKLGHFSDKMSVTVDYELRAFMSDQKKAKRLVLEAMLKYPEFIPDSWGGESAILKWKEMKEIDVRRREADIKEMAETERKEKEKVEKNKMEMTEKIKKKDEDEKAKKEKERIDKEEKIKKEVEEAEKKKKEEKEKRRKEVKKNREEQLSINPEMSRNDKKDVVEEKSCLDKGAKDAQKKKKQQDVVDKKKEKRKLKKTRTMEASRSREVSHEEHHQPPVLSTLATPSPVPSPSVPPTAPPSTPRKPMFGAVSQFLSGRKRREPSAEKIVEPPSKNSAAATKKTVRK | not soluble
7 | MQRGIVWVVDDDSSIRWVLERALAGAGLTCTTFENGNEVLAALASKTPDVLLSDIRMPGMDGLALLKQIKQRHPMLPVIIMTAHSDLDAAVSAYQQGAFDYLPKPFDIDEAVALVERAISHYQE | soluble
8 | MSLIDTMQYGKNDSLRDEIKAYWSGRAATFDLSPGHEIFSEDERAAWHALILKHLGRGEGRKALDLASGTGVISHLMDDLGFQVTGMDWSETMLGLAREKAKSRGRNIRFFVGDAENTMEPDESADVIITRHLVWTLVDPQASFAEWFRVLKPGGKLLIVDGDFVNTGWRERLVKKLAVSLESIGLVKADQPHKPADPENTFNSILSRVYFSKGARAGDVATMLGATGFEPVSVDQELRAIHRAQAKNFSLLKGILRGLQHRYAVCAVKPDTSVKGEGHHHHHH | not soluble
9 | MGSDKIHHHHHHMSVRCASLSAMELTQATVNDLLAQLGPGDSYMYLPSDLDPQDLTDLLDGRYGAARTLVLDGFTDPTVDESRGAALLVPFEDRAVKIRAWAYGDQWVGTGTARDAKGAERPVLVVAHREVPEPLAVAPDEDEDVDWMERLIRITGWTRPAQRPDVDWAEVESRLGTALPSDYKRMVETFGEGAFDGYLDLNQEPWTDLRRDGLLIWAGTEHEDLYCWRADGDDPDRWPVVVRSFDNKDVPFDCQAAKFVCRILIDPHHPFTMARYFDTHWFMNYRESG | not soluble
10 | MNKHSGIDFKQLNFLTKLNENHSGELWKGRWQGNDIVVKVLKVRDWSTRKSRDFNEECPRLRIFSHPNVLPVLGACQSPPAPHPTLITHWMPYGSLYNVLHEGTNFVVDQSQAVKFALDMARGMAFLHTLEPLIPRHALNSRSVMIDEDMTARISMADVKFSFQSPGRMYAPAWVAPEALQKKPEDTNRRSADMWSFAVLLWELVTREVPFADLSNMEIGMKVALEGLRPTIPPGISPHVSKLMKICMNEDPAKRPKFDMIVPILEKMQDK | soluble
11 | SLWQPQTGDIIFQISRSSQSKAIQLATHSDYSHTGMLVMRNKKPYVFEAVGPVKYTPLKQWIAHGEKGKYVVRRVEGGLSVEQQQKLAQTAKRYLGKPYDFSFSWSDDRQYCSEVVWKVYQNALGMRVGEQQKLKEFDLSNPLVQAKLKERYGKNIPLEETVVSPQAVFDAPQLTTVAKEWPLFSW | soluble
12 | MSSKMVKSSEIVGKLNLRAHQEGGFFAETFRDSSVFLSTSQLPPTFKVDRAVSTSIYFLLPSGSVSRLHRIPMAETWHFYLGEPLTVVELYDDGKLKFTCLGPDLFEGDQKPQYTVPPNVWFGSFPTKDVHFSQDGALLKAEARDSENHFSLVGCTCAPAFQFEDFELAKRSDLLSRFPQHESLITMLSYPE | soluble
13 | MGSDKIHHHHHHMKKTYVLDTNVLLHDPMALFRFEDNDLVIPITVIEEIDRFKKDLNERGRNARQISRLLDGFRSKGHLIEGITLDHGGKLRVVMLEKTFLEQLPSGLIANANDNAILAVALALQQQNGQPTILVTKDTNLRIKADATGLCAEDYESDKIDFSELYSGTAEVYLAPDQLQVFRREGGLDLSGEFFPNQALTLVDETNLSHTLLGRYRASDRRVVPLIQPPKMGISRIHARNREQQFALDLLLDDNIQLVTLVGKAGTGKTLLAVAAGLHKVADERHFSRLLVSRPIFPMGRDLGFLPGDLQEKLAPWMQPIIDNLDFILGGANNNGDRPSNKQQNYQDLMGMNLLQIEPLTYIRGRSIPRQFMIVDEAQNLTPHEIKTILTRAGEGTKIVLTGDAYQIDNPYVDASSNGLTYVVEKFKNEAIAGHITLERGERSPLAELSANLL | not soluble
14 | MNLRGILPFAHDTLRKVVRSGDYVIDATCGNGHDTLLLAELVGVNGHVLGFDIQQMAIDATKTRLENAGVASQVELVCASHALIPEYATKPVRAAIFNLGYLPGGDKEITTTADSTLESIGHLMQLLEVGGVIIIVIYHGHPAGKVEKDAVLTFCEAIPQQDFHVLSYNFINQKNDAPFVIIIEKRKPLEHHHHHH | not soluble
15 | MKDRYLIIDGYNMIGQSQELSRIAQDNLEEAREQLLIAIANYNAVIADEVVCVFDAYEQSGAPTEYMYHGVKTIFTKEKETADSYIERYVYDLYDKHTRHITVVTSDMSEQHAIFGAGAYRVSSREMWRDLRENEISVSKKLDGFNEQKPRTRIELSNEILEEFEKLRRGDNHLEHHHHHH | not soluble
16 | MGSDKIHHHHHHMRIDIDSFNVLQVLVEEGSFAKASERLHKAQSAVSYQVKKLEQHLGVTLFNRDKYRAELTPEGKVILIEGQRLLEQLANIEHLASRFSQGWEPKLELVIDGSLPMEPIMTALKRMSEHNVPTKIQLNMEFLGGVQHRFERDKADLMLVKDYRSGPYYDAKPLPSITSVLVVANSHPLALSKAVSLSQLQQHVELTIEDSSPSRLGRDELQFGGDKVFYLSGFIMKKNALLKGLGFGWMPDFLIGEELAAGELVMVDFMGGSRFNYTPQLVSTLARPLGRAGQLFTELILQEFDLFHQDLADGSSGSGLG | not soluble
17 | MTLQQEIIQALGAKPHINPEEEIRRSVDFLKAYLKTYPFLKSLVLGISGGQDSTLAGKLSQMAIAELREETGDNALQFIAVRLPYGVQADEQDCQDAIAFIQPDRVLTVNIKGAVLASEQALREAGIELSDFVRGNEKARERMKAQYSIAGMTHGVVVGTDHAAEAITGFFTKYGDGGTDINPLHRLNKRQGKQLLAALGCPEHLYKKVPTADLEDDRPSLPDEAALGVTYDNIDDYLEGKTLDPAIAKTIEGWYVKTEHKRRLPITVFDDFWKR | soluble
18 | MPGLLLCEPTELYNILNQATKLSRLTDPNYLCLLDVRSKWEYDESHVITALRVKKKNNEYLLPESVDLECVKYCVVYDNNSSTLEILLKDDDDDSDSDGDGKDLVPQAAIEYGRILTRLTHHPVYILKGGYERFSGTYHFLRTQKIIWMPQELDAFQPYPIEIVPGKVFVGNFSQACDPKIQKDLKIKAHVNVSMDTGPFFAGDADKLLHIRIEDSPEAQILPFLRHMCHFIEIHHHLGSVILIFSTQGISRSCAAIIAYLMHSNEQTLQRSWAYVKKCKNNMCPNRGLVSQLLEWEKTILGDSITNIMDPLY | soluble
19 | MAHHHHHHMEGEEKVELSQLELKLEELQVIWEDVQATCPATHSSKRRNSSDAVASPPRVRSTSGAAQRQGANTQEPLQLPSPQSKHPSLRLLHANNKGKLRCTNPVASEGAVLGGIVSVSPPHSPANASVGACPHGRDGGVRNCVPSRLPPLDASHAQELLKACSNCGVEQRRPTAQFCWNCGTRI | not soluble
20 | MADTFFFTPSRRLTVANVAELTGAKLLNPEFSNTVINTLSSLESAGKGSLVFVEHRKFSDALVGSSAVAVFCTNEIVFKVPESMAILVTSTPQRDFAQIGRILFPDSVKPMPWFGQREISPHAHIHPSAKLAGDVCIEAGAVIGRNVEIGSGSLIASTAVIGENCRIGCDCYIAPKVTVQYSLIGDKVHLYPGACIGQDGFGYIGGASGIEKVPQLGRVIIEDGVEIGANTTIDRGTFEDTIIGEGSKIDNLVQIAHNVKIGRYCLIAAQCGIAGSTSIGDMSQLGGSVGVADHIVIGKYVQIAAGSGVMNDIPDGEKWGGSPARPFKQWFREVAALRSIGKVKKEKR | not soluble
21 | SSHGHSHGGGGCRCAAEREEPPEQRGLAYGLYLRIDLERLQCLNESREGSGRGVFKPWEERTDRSKFVESDADEELLFNIPFTGNVKLKGIIIMGEDDDSHPSEMRLYKNIPQMSFDDTEREPDQTFSLNRDLTGELEYATKISRFSNVYHLSIHISKNFGADTTKVFYIGLRGEWTELRRHEVTICNYEASANPADHRVHQVTPQTHFIS | soluble
